The text below walks through data of a protein production outcome set (Wang et al. 2014).

The nature of the data set: label from the status in PepcDB records.

Take “VWWQLHYGPHPDERELDLEGWTTRVLDATRDAVAIRQRAAVDVGVLLSGGVDSSLLVGLLREVGVDDLSTFSIGFEDAGGERGDEFQYSDLIAKHYGTRHHQLRIAEHEIIDQLPAAFRAMSEPMVSHDCIAFYLLSREVAKHCKGVQSGQGADELFAGYHWYPQVDGADDAYAAYREAFFDRSHAEYRDTVQAPWLLETDAAGDFVREHFARPGAPAAVDKALRLDSTVMLVDDPVKRVDNMTMAWGLEARTPFLDYRLVELSARIPARFKLPDGGKQVLKQAARRVIPHEVIDRKKGYFPVPGLKHLEGATLGWVRELLTDPSQDRGLFNPTMLDRLLSNPHGQLTPLRGSKLWQLAALNLWLS”: the protein production result was “failed”. “WLDDGKNGGQLGSVEASAVYRNTQVFGEAAYATEPGALSWICGVQSDLAKGITGVVSMRDYAFEYYSPFAGAFAERGDNASNESGLYLGLKAKVRDNLTLAGLYDRFRFPVLDKRYYVYPSSGYEARFYATWKQNRWMTWDAMYQHKEKEEAKKQFDSNIGTSRYIPVPKITNRVQLGLVVECSPGITLKSRAAFKSLRSHFVTGAESEEGWLLYQQINLKRGPFTLKTRLARFDTDSYDVALYAYEDDLPLVYMLNAYYGRGKAWFIVLDFEPVKNFNLTAKYETTWYDDRDVYSSGNDLRNTSSPGSYHVGCMLKF”: the protein production entry is “failed”. Regarding “WQGLSSKGDLPQVEITKAFFAKQADEVTLQQADVVLVLQQEDGWLYGERLRDGETGWFPEDFARFI”, the protein production result was “not failed”. In the case of “WYEDGLVCTLAYQNHRAPLVFIIAGTGASHNTPRMVKLRSALYQGGFHVISLTSPTHMDFVVNASSGLPGDPLDDARDLYRVMEMAYDAVRDTIDVSGFDLAGYSLGAFNAAFVARLDEEEKRFNFSKVLLINPPVSLYESVAALDQLLVENVPQGMEQFDAWFRSVFAEFSHVSREVGPGSLSGDFIYSAYKRFPPNEENLAALIGLSFRMSAANMIFTADVMNGGGYIVPRNARLTATSSLTRYATVSLHTRFTDYFDEWFFPNRRHREPSLTRQALLARMSLRSQEAYLRNADKVGLIHNEDDIILAPGDIDYLQGVFGGRARLFPTGGHMGNMFHPDVVSFMIDFL”, the protein production result is reported as “failed”.

Turning to “YAVQICKGMDYLGSRQYVHRDLAARNVLVESEHQVKIGDFGLTKAIETDKEYYTVKDDRDSPVFWYAPECLMQSKFYIASDVWSFGVTLHELLTYCDSDSSPMALFLKMIGPTHGQMTVTRLVNTLKEGKRLPCPPNCPDEVYQLMRKCWEFQPSNRTSFQNLIEGFEALLK”, the protein production entry was “failed”. Regarding “YDAILLIDYRQRRIIDCNQTAQKLLGYSKEELRLLPPYRLLRAMSARSIKPIFQDILAKRREIHDITLLSQSGEQLLGQLSFNTLQEED”, the protein production entry was “failed”. Consider “YKELDVHLRRMESGFGFRILGGDEPGQPILIGAVIAMGSADRDGRLHPGDELVYVDGIPVAGKTHRYVIDLMHHAARNGQVNLTVRRKVL”, for which the protein production result is “not failed”. Turning to “YLIKFDRIAVPMAEGRSSRRVLHIAFAFASAMGSEITAITVRDQAKDITWTNKITVVTNAYKEGLSQNIKVVPKILTSSDVKSALVEELNRHSYDIVIIASEKRSIITRITSGPVSNYVIKKSNIPTALV”, the protein production entry was “failed”. In the case of “YSIALIIPSLFEKACAHFLPSFQQALNKAGYQLLLGYSDYSIEQEEKLLSTFLESRPAGVVLFGSEHSQRTHQLLEASNTPVLEIAELSSKASYLNIGVDHFEVGKACTRHLIEQGFKNVGFIGARGNHSTLQRQLHGWQSAMIENYLTPDHFLTTHEAPSSQLGAEGLAKLLLRDSSLNALVCSHEEIAIGALFECHRRVLKVPTDIAIICLEGSSMGEHAYPSLTSAEFDYERMGTKAAEKLLHAIKGEPEERPTSMGFKLKRRASTAIN”, the protein production entry is “not failed”.

Turning to “YYNIYYPRGKDFYNVGGDYKFFWKRFSLLGETAIDKCGTWATMNMLRYSPKGGTQLIVMNRYYDAKYQSVYARSIGEGSTVQNESGFYIGLETSILKYIKMTCYGDFFYFPWKKYLVSKAGTKGLDGLLQLSYSPTYELEMFIRYRYKKKEKDFTAADKTKQTIPSIQQKCRYQLNYSVKDKLTLKTIADYVRINFRGQSASNGFLVSQSAAYTFHLLPLQLDLSAAWFNTDDYNSRLTIYEKSVLYAFSMPSFYYKGMRVAVNARYELNKHIILQAKYGTTHYFNRDKISSALEEIDGSTKSDLYLQLRLKF”, the protein production result is listed as “failed”.
